Assay results as given in IntAct's records for PubMed 24034250.

B1: Apoptosis regulator Bcl-2 homolog (Murid herpesvirus 4 (MuHV-4)), P89884 (parent)
chain: MSHKKSGTYWATLITAFLKTVSKVEELDCVDSAVLVDVSKIITLTQEFRRHYDSVYRADYGPALKNWKRDLSKLFTSLFVDVINSGRIVGFFDVGRYVCEEVLCPGSWTEDHELLNDCMTHFFIENNLMNHFPLEDIFLAQRKFQTTGFTFLLHALAKVLPRIYSGNVIYV

Variants of: B1
Conditions: with becn1_human BECN1, Q14457
becn1_human BECN1, Q14457, sequence (Q14457 whole entry): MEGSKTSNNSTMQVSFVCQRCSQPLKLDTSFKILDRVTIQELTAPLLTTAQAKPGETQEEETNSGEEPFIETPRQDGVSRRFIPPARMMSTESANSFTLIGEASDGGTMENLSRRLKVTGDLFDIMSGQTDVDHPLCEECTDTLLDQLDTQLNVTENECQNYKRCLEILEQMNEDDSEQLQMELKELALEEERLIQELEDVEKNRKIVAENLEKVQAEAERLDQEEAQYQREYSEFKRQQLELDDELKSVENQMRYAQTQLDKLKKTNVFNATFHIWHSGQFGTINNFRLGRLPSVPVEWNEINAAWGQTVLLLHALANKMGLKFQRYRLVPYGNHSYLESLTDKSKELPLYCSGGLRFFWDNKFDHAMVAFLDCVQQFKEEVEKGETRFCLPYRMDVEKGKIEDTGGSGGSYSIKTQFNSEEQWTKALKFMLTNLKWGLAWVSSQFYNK

| Variant | effect of a mutation on the interaction |
| --- | --- |
| S85A;G86A;R87A | decreasing interaction strength |

Variants of: B1
Conditions: with bax_human BAX

| Variant | effect of a mutation on the interaction |
| --- | --- |
| S85A;G86A;R87A | decreasing interaction strength |
